Assay results published in patent US20250154231A1.
Where two headings read alike, the source gives them in different places.

Key:
Experiment in all cases: cell-based or functional assay
[1] = target: SARS-CoV-2 spike (S) protein, Victoria strain (SARS-CoV-2) (UniProt P0DTC2)
[2] = target: SARS-CoV-2 spike (S) protein, Omicron BA.1 (SARS-CoV-2) (UniProt P0DTC2)
[3] = target: SARS-CoV-2 spike (S) protein, Omicron BA.2.75 (SARS-CoV-2) (UniProt P0DTC2)
[4] = target: SARS-CoV-2 spike (S) protein, Omicron BA.1.1 (SARS-CoV-2) (UniProt P0DTC2)
[5] = target: SARS-CoV-2 spike (S) protein, Omicron BA.3 (SARS-CoV-2) (UniProt P0DTC2)
[6] = target: SARS-CoV-2 spike (S) protein, Omicron BA.4/5 (SARS-CoV-2) (UniProt P0DTC2)
[7] = target: SARS-CoV-2 spike (S) protein, Omicron BA.2 (SARS-CoV-2) (UniProt P0DTC2)
[8] = target: SARS-CoV-2 spike (S) protein, Victoria strain (SARS-CoV-2) (UniProt P0DTC2); remark: listed apart in the source
[9] = target: SARS-CoV-2 spike (S) protein, Omicron BA.1 (SARS-CoV-2) (UniProt P0DTC2); remark: listed apart in the source
[10] = target: SARS-CoV-2 spike (S) protein, Omicron BA.4.6 (SARS-CoV-2) (UniProt P0DTC2)
[11] = target: SARS-CoV-2 spike (S) protein, Omicron BA.1.1 (SARS-CoV-2) (UniProt P0DTC2); remark: listed apart in the source
[12] = target: SARS-CoV-2 spike (S) protein, Omicron BA.3 (SARS-CoV-2) (UniProt P0DTC2); remark: listed apart in the source
[13] = target: SARS-CoV-2 spike (S) protein, Omicron BA.4/5 (SARS-CoV-2) (UniProt P0DTC2); remark: listed apart in the source
[14] = target: SARS-CoV-2 spike (S) protein, Omicron BA.2 (SARS-CoV-2) (UniProt P0DTC2); remark: listed apart in the source
[15] = target: SARS-CoV-2 spike (S) protein, Victoria strain (SARS-CoV-2) (UniProt P0DTC2); remark: listed apart in the source
[16] = target: SARS-CoV-2 spike (S) protein, Omicron BA.2.3.20 (SARS-CoV-2) (UniProt P0DTC2)
[17] = target: SARS-CoV-2 spike (S) protein, Omicron BA.4.6 (SARS-CoV-2) (UniProt P0DTC2); remark: listed apart in the source
[18] = target: SARS-CoV-2 spike (S) protein, Omicron BJ.1 (SARS-CoV-2) (UniProt P0DTC2)
[19] = target: SARS-CoV-2 spike (S) protein, Omicron BA.2.75 (SARS-CoV-2) (UniProt P0DTC2); remark: listed apart in the source
[20] = target: SARS-CoV-2 spike (S) protein, Omicron BA.2.75.2 (SARS-CoV-2) (UniProt P0DTC2)
[21] = target: SARS-CoV-2 spike (S) protein, Omicron BA.4/5 (SARS-CoV-2) (UniProt P0DTC2); remark: listed apart in the source
[22] = target: SARS-CoV-2 spike (S) protein, Omicron BA.2 (SARS-CoV-2) (UniProt P0DTC2); remark: listed apart in the source
[23] = target: SARS-CoV-2 Omicron BA.2 spike (S) protein (SARS-CoV-2) (UniProt P0DTC2)
[24] = target: SARS-CoV-2 Delta spike (S) protein (SARS-CoV-2) (UniProt P0DTC2)
[25] = target: SARS-CoV-2 Omicron BA.1 spike (S) protein of the live isolate (SARS-CoV-2) (UniProt P0DTC2)
[26] = target: SARS-CoV-2 Alpha spike (S) protein (SARS-CoV-2) (UniProt P0DTC2)
[27] = target: SARS-CoV-2 Gamma spike (S) protein (SARS-CoV-2) (UniProt P0DTC2)
[28] = target: SARS-CoV-2 Victoria spike (S) protein (SARS-CoV-2) (UniProt P0DTC2)
[29] = target: SARS-CoV-2 Beta spike (S) protein (SARS-CoV-2) (UniProt P0DTC2)
[30] = target: SARS-CoV-2 Omicron BA.1.1 spike (S) protein (SARS-CoV-2) (UniProt P0DTC2)

Ly-CoV1404 (antibody)
pseudovirus neutralisation IC50 [1]: 0.001 µg/mL | pseudovirus neutralisation IC50 [2]: 0.002 µg/mL | pseudovirus neutralisation IC50 [3]: 0.002 µg/mL | pseudovirus neutralisation IC50 [4]: 0.001 µg/mL | pseudovirus neutralisation IC50 [5]: 0.002 µg/mL | pseudovirus neutralisation IC50 [6]: 0.002 µg/mL | pseudovirus neutralisation IC50 [7]: 0.001 µg/mL | IC50, pseudoviral neutralization [8]: 0.001 µg/mL | IC50, pseudoviral neutralization [9]: 0.002 µg/mL | IC50, pseudoviral neutralization [10]: 0.001 µg/mL | IC50, pseudoviral neutralization [11]: 0.001 µg/mL | IC50, pseudoviral neutralization [12]: 0.002 µg/mL | IC50, pseudoviral neutralization [13]: 0.002 µg/mL | IC50, pseudoviral neutralization [14]: 0.001 µg/mL

S309 (antibody)
IC50, pseudoviral neutralization [15]: 0.079 µg/mL | IC50, pseudoviral neutralization [16]: 0.977 µg/mL | IC50, pseudoviral neutralization [17]: 1.03 µg/mL | IC50, pseudoviral neutralization [18]: 0.431 µg/mL | IC50, pseudoviral neutralization [19]: 0.202 µg/mL | IC50, pseudoviral neutralization [20]: 0.465 µg/mL | IC50, pseudoviral neutralization [21]: 0.689 µg/mL | IC50, pseudoviral neutralization [22]: 0.638 µg/mL | pseudovirus neutralisation IC50 [1]: 0.079 µg/mL | pseudovirus neutralisation IC50 [2]: 0.113 µg/mL | pseudovirus neutralisation IC50 [3]: 0.202 µg/mL | pseudovirus neutralisation IC50 [4]: 0.142 µg/mL | pseudovirus neutralisation IC50 [5]: 0.311 µg/mL | pseudovirus neutralisation IC50 [6]: 0.689 µg/mL | IC50, pseudoviral neutralization [8]: 0.079 µg/mL | pseudovirus neutralisation IC50 [8]: 0.13 µg/mL | IC50, pseudoviral neutralization [9]: 0.113 µg/mL | pseudovirus neutralisation IC50 [9]: 0.094 µg/mL | IC50, pseudoviral neutralization [10]: 1.03 µg/mL | IC50, authentic virus neutralization [23]: 5.04 µg/mL | IC50, authentic virus neutralization [24]: 0.113 µg/mL | IC50, authentic virus neutralization [25]: 0.256 µg/mL | IC50, authentic virus neutralization [26]: 0.078 µg/mL | IC50, authentic virus neutralization [27]: 0.076 µg/mL | IC50, pseudoviral neutralization [11]: 0.142 µg/mL | pseudovirus neutralisation IC50 [11]: 0.138 µg/mL | IC50, authentic virus neutralization [28]: 0.04 µg/mL | IC50, pseudoviral neutralization [12]: 0.311 µg/mL | pseudovirus neutralisation IC50 [12]: 0.228 µg/mL | IC50, authentic virus neutralization [29]: 0.082 µg/mL | IC50, pseudoviral neutralization [13]: 0.689 µg/mL | pseudovirus neutralisation IC50 [13]: 1.04 µg/mL | IC50, authentic virus neutralization [30]: 1.12 µg/mL | IC50, pseudoviral neutralization [14]: 0.638 µg/mL | pseudovirus neutralisation IC50 [14]: 0.638 µg/mL
